Data from patent US11807881B2, “Polypeptide, fusion polypeptide, and antibiotic against gram-negative bacteria comprising same” (priority 2020, dated 2023).

How the values were obtained:
Pseudomonas aeruginosa = assay: CFU reduction test (killing ability in vitro); assay type: cell-based
Description: For this, the endolysin LNT101 at a concentration of 0.1, 0.5, 1.0 μM and Pseudomonas aeruginosa (ATCC 13388) […] CFU were added so that the final volume was 200 μl to reaction buffer (20 mM Tris-Cl, pH 7.5) and they were left at 37° C. for […]. In 30 minutes, 1 hour and 2 hours, the number of colonies of Pseudomonas aeruginosa was confirmed, and the result was shown in FIG. 3.
In addition, that the LNT101 endolysin had the antibacterial ability in various gram negative bacterium was confirmed by a CFU reduction test, and the result was shown in Table 2 below.

Escherichia coli = assay: CFU reduction evaluation; assay type: cell-based; settings: E. coli (ATCC 8739); 2 μM, 2 hours
Description: (§1) In order to confirm the killing ability against gram negative bacterium of the fusion polypeptide LNT103 prepared in Example 3.2, CFU reduction evaluation was performed for various gram negative bacterium. In order to perform the CFU reduction evaluation, 2 μM of each of LNT101, LNT102, and LNT103 prepared in Example 3, and 1×10^6 CFU of each of Pseudomonas aeruginosa (PA01; ATCC 15692), Acinetobacter baumannii (ATCC 17978), Escherichia coli (ATCC 8739), Klebsiella pneumoniae (ATCC 13883), and Enterobacter aerogenes (CCARM 16006) were added to reaction buffer (20 mM Tris-Cl, pH7.5) so that the final volume was 200 μl, and it was left at 37° C. for 2 hours. After that, the number of the colonies of each gram negative bacterium was confirmed to compare and evaluate the antibiotic effect of each polypeptide. As a control group, the PBS treatment group (treating PBS in the same volume as the fusion polypeptide) was used.

Klebsiella pneumoniae = assay: CFU reduction evaluation; assay type: cell-based; settings: Klebsiella pneumoniae (ATCC 2208); 2 μM, 2 hours
Description: as §1

A. baumannii = assay: MIC and MBC, broth microdilution in CAA media; assay type: cell-based
Description: (§2) In addition, MIC (Minimal Inhibitory Concentration) and MBC (Minimal Bactericidal Concentration) of the fusion polypeptide LNT103 were measured. […] Specifically, the LNT103 was treated at a concentration of 64 μg/ml to a 96 well microplate row A, and the LNT103 was treated at a concentration where serial dilution was performed by ½ in rows B-G. To the row H, LNT103 was not treated. After that, the corresponding bacterium strain (type or QC, CCARM and clinical separation strain; See Tables 2-4) was treated in an amount of 5×10^5 CFU/ml, total 100 μl in all wells. Then, it was cultured at 37° C. for 18 hours. MIC was determined to be the lowest concentration at which no colonies were identified by confirming the number of the colonies in each well.

P. aeruginosa = assay: MIC and MBC, broth microdilution in CAA media; assay type: cell-based
Description: as §2

[1] = system: Acinetobacter baumannii ATCC 19606; assay: Acinetobacter baumannii systemic infection mouse model, viability; assay type: in vivo; settings: ICR male mice; LNT103 20 mpk and 100 mpk, subcutaneous injection 1 hour and 4 hours after infection; comparative colistin 20 mpk
Description: For in vivo effectivity evaluation of the fusion polypeptide LNT103, the viability was confirmed in an Acinetobacter baumannii ATCC 19606 systemic infection mouse model was confirmed.
The process of progressing an animal experiment was as follows. Mice were used when ICR male 4-week-old mice were purchased and a one-week adaptation period was passed, and the weight was 20˜21 g at 5-6 weeks of age. The Acinetobacter bacteria were mixed with 10% mucin at 1:1, and 0.5 ml of 2×10^8 CFU/ml (5% mucin) of the bacterial solution was inoculated intraperitoneally into mice. In 1 hour and 4 hours after infection, LNT103 20 mpk and LNT103 100 mpk, and colistin 20 mpk as a comparative group were administered, respectively, through a subcutaneous injection.

[2] = A. baumannii 643(Kyungpook National University)
[3] = A. baumannii 3680(Gyeongsang National University)

B1: LNT101: endolysin derived from bacteriophage PBPA90, amino acid sequence SEQ ID NO: 1 (259 aa), purified with 6× His tag (protein)
chain: MGTVLKRGDRGSAVEDLQMKLRVAGYAVSADGIFGGDTEKAVRDFQASKALVVDGKVGPATLAELAKSATVPAKWEAIPFPTANKSRSAAMPTLNAVGAMTGTDSRLLATFASIESAFDYTVKASTSSATGWFQFLDATWDDMIKAHGSKYGIPKDPTRALRKDPRANALMGAEFLKGNAAVLRPVINREPSDTDLYLAHFLGAGGAKKFLSADQKTLGEVLFPKPAKANPSIFSNKGVPRTLAEIYKLFEDKVSKHRA
modifications: 6xHis tag; synthetic_Endolysin LNT101
Pseudomonas aeruginosa; ATCC 13388 10^6 CFU, 0.1, 0.5, 1.0 μM, 30 minutes, 1 hour and 2 hours, 37° C.
  killing ability against Pseudomonas aeruginosa (number of colonies): had the killing ability against Pseudomonas aeruginosa in all the tested treatment dose and time
Pseudomonas aeruginosa; P. aeruginosa ATCC 13388
  CFU reduction: ◯ (‘◯’ means reduction of 0.5 log CFU or more through the CFU reduction assay)
Pseudomonas aeruginosa; P. aeruginosa ATCC 15522
  CFU reduction: ◯ (‘◯’ means reduction of 0.5 log CFU or more through the CFU reduction assay)
Pseudomonas aeruginosa; P. aeruginosa CCARM 2092
  CFU reduction: ◯ (‘◯’ means reduction of 0.5 log CFU or more through the CFU reduction assay)
Pseudomonas aeruginosa; P. aeruginosa CCARM 2134
  CFU reduction: ◯ (‘◯’ means reduction of 0.5 log CFU or more through the CFU reduction assay)
Pseudomonas aeruginosa; P. aeruginosa CCARM 2144
  CFU reduction: ◯ (‘◯’ means reduction of 0.5 log CFU or more through the CFU reduction assay)
Pseudomonas aeruginosa; P. aeruginosa CCARM 2326
  CFU reduction: ◯ (‘◯’ means reduction of 0.5 log CFU or more through the CFU reduction assay)
Pseudomonas aeruginosa; P. aeruginosa F141
  CFU reduction: ◯ (‘◯’ means reduction of 0.5 log CFU or more through the CFU reduction assay)
Pseudomonas aeruginosa; P. aeruginosa PAO1
  CFU reduction: ◯ (‘◯’ means reduction of 0.5 log CFU or more through the CFU reduction assay)

B2: LNT103: fusion polypeptide [Cecropin A]-[linker (GSGSGS)]-[endolysin LNT102]; SEQ ID NO: 15 (MAS, His tag) used in the tests (protein)
chain: MASKWKLFKKIEKVGQNIRDGIIKAGPAVAVVGQATQIAKGSGSGSMGTVLKRGDRGSAVEDLQMKLNVAGYNLSADGIFGGDTEKAVRDVQAGAGLVVDGKVGPKTLYAIAKSATVPAKWEAIPFPTANKSRSAAMPTLNAVGAMTGVDSRLLATFASIESAFDYTVKAKTSSATGWFQFLDATWDDMIKAYGSKYGIPKDPTRALRKDPRANALMGAEFIKGNAAVLRPVINREPSDTDLYLAHFLGAGGAKKFLSADQKTLGEVLFPKPAKANPSIFSNKGVPRTLAEIYKLFEDKVSKHRALEHHHHHH
modifications: synthetic_Fusion Polypeptide LNT103 with MAS, His tag, and extra sequence
Escherichia coli
  CFU Counting result: 0 log CFU/ml
Klebsiella pneumoniae
  CFU Counting result: 0 log CFU/ml
A. baumannii; [2]
  MBC: 16 µg/mL
  MIC: 8 µg/mL
A. baumannii; [3]
  MBC: 8 µg/mL
  MIC: 8 µg/mL
A. baumannii; A. baumannii ATCC 17978
  MBC: 8 µg/mL
  MIC: 8 µg/mL
A. baumannii; A. baumannii ATCT 19606
  MBC: 8 µg/mL
  MIC: 8 µg/mL
A. baumannii; A. baumannii CCARM 12001
  MBC: 8 µg/mL
  MIC: 8 µg/mL
A. baumannii; A. baumannii CCARM 12015
  MBC: 16 µg/mL
  MIC: 16 µg/mL
A. baumannii; A. baumannii CCARM 12026
  MBC: 8 µg/mL
  MIC: 8 µg/mL
A. baumannii; A. baumannii CCARM 12035
  MBC: 8 µg/mL
  MIC: 8 µg/mL
A. baumannii; A. baumannii CCARM 12202
  MBC: 8 µg/mL
  MIC: 8 µg/mL
A. baumannii; A. baumannii F4
  MBC: 16 µg/mL
  MIC: 16 µg/mL
A. baumannii; A. baumannii F15
  MBC: 8 µg/mL
  MIC: 8 µg/mL
A. baumannii; A. baumannii F65
  MBC: 4 µg/mL
  MIC: 4 µg/mL
A. baumannii; A. baumannii F66
  MBC: 4 µg/mL
  MIC: 4 µg/mL
A. baumannii; A. baumannii F67
  MBC: 8 µg/mL
  MIC: 8 µg/mL
A. baumannii; A. baumannii F68
  MBC: 4 µg/mL
  MIC: 4 µg/mL
A. baumannii; A. baumannii F69
  MBC: 8 µg/mL
  MIC: 8 µg/mL
A. baumannii; A. baumannii F70
  MBC: 16 µg/mL
  MIC: 16 µg/mL
A. baumannii; A. baumannii F71
  MBC: 8 µg/mL
  MIC: 8 µg/mL
A. baumannii; A. baumannii KACC 13090
  MBC: 8 µg/mL
  MIC: 8 µg/mL
A. baumannii; A. baumannii KACC 14233
  MBC: 8 µg/mL
  MIC: 8 µg/mL
P. aeruginosa; P. aeruginosa ATCC 9027
  MBC: 16 µg/mL
  MIC: 16 µg/mL
P. aeruginosa; P. aeruginosa ATCC 10145
  MBC: 32 µg/mL
  MIC: 16 µg/mL
P. aeruginosa; P. aeruginosa ATCC 15522
  MBC: 16 µg/mL
  MIC: 16 µg/mL
P. aeruginosa; P. aeruginosa ATCT 13388
  MBC: 16 µg/mL
  MIC: 8 µg/mL
P. aeruginosa; P. aeruginosa CCARM 2134
  MBC: 16 µg/mL
  MIC: 8 µg/mL
P. aeruginosa; P. aeruginosa CCARM 2144
  MBC: 32 µg/mL
  MIC: 32 µg/mL
P. aeruginosa; P. aeruginosa F102
  MBC: 8 µg/mL
  MIC: 8 µg/mL
P. aeruginosa; P. aeruginosa F141
  MBC: 8 µg/mL
  MIC: 8 µg/mL
P. aeruginosa; P. aeruginosa F265
  MBC: 16 µg/mL
  MIC: 16 µg/mL
P. aeruginosa; P. aeruginosa F341
  MBC: 8 µg/mL
  MIC: 8 µg/mL
P. aeruginosa; P. aeruginosa F388
  MBC: 8 µg/mL
  MIC: 8 µg/mL
P. aeruginosa; P. aeruginosa PAO1(ATCC 15692)
  MBC: 16 µg/mL
  MIC: 8 µg/mL
[1]
  viability for 96 hours: higher viability compared to the non-administration group (control) and comparative group (colistin administration group)
